B1: IFN-β-ser: recombinant interferon-beta serine, nasal drops tested in published prophylaxis trials (protein, UniProt P01574 22-187, looked up, variant C17S)
Interferon beta: MSYNLLGFLQRSSNFQSQKLLWQLNGRLEYCLKDRMNFDIPEEIKQLQQFQKEDAALTIYEMLQNIFAIFRQDSSSTGWNETIVENLLANVYHQINHLKTVLEEKLEKEDFTRGKLMSSLHLKRYYGRILHYLKAKEYSHCAWTIVRVEILRNFYFINRLTGYLRN
B2: IFN-λ1: type III interferon, Interferon λ-1 also known as IL-29, amino acid sequence SEQ ID NO: 5 (protein, listed as Homo sapiens)
chain: MAAAWTVVLVTLVLGLAVAGPVPTSKPTTTGKGCHIGRFKSLSPQELASFKKARDALEESLKLKNWSCSSPVFPGNWDLRLLQVRERPVALEAELALTLKVLEAAAGPALEDVLDQPLHTLHHILSQLQACIQPQPTAGPRPRGRLHHWLHRLQEAPKKESAGCLEASVTFNLFRLLTRDLKYVADGNLCLRTSTHPEST

Tests used:
natural colds = details: Sperber et al. 1989; cited from earlier work
rhinovirus [1] = details: general population volunteers, Higgins et al. 1986; cited from earlier work
RV16 [2] = assay: RV16 viral RNA in BEAS2B cell lysates, TaqMan PCR; type: cell-based, rhinovirus; details: BEAS2B cells treated 24 h with different doses of IFN-λ1 before infection
Procedure: (§1) The human bronchial epithelial cell-line BEAS2B was infected with RV. TaqMan® PCR was used to identify IFN-λs mRNA expression and a bioassay was employed for corresponding protein production. BEAS2B cells were treated for 24 h with different doses of IFN-λ1 before infection with RV. Both TaqMan® PCR for viral RNA in cell lysates and viral titration of the BEAS2B supernatant were performed to investigate the antiviral effect.
(§2) The human bronchial epithelial cell-line BEAS2B and bronchial primary cells from asthmatics (6) and normal patients (5) were infected with RV16. TaqMan® PCR for IFN-λ mRNA expression was used. BEAS2B cells were treated with IFN-λ1 before infection with RV16. Both TaqMan® PCR for viral RNA in cell lysates and viral titration of the BEAS2B supernatant were performed to investigate the antiviral effect. TaqMan® PCR for viral RNA in cell lysates of primary cells was used also to test weather RV16 infectivity was different between primary cells from asthmatics and normals.

RV16 [3] = assay: RV16 virus release, viral titration of BEAS2B supernatant; type: cell-based, rhinovirus; details: BEAS2B cells treated 24 h with different doses of IFN-λ1 before infection
Procedure: as §1, §2

rhinovirus [4] = assay: Virus induced cytopathic effect in HeLa cell titration assay; type: cell-based
BEAS2B cells = assay: Induction of type I and type III interferons in BEAS2B cells; type: cell-based, human

| Molecule | prophylaxis of natural colds (natural colds) | effect against experimental rhinovirus infection (rhinovirus [1]) | rhinovirus 16 viral RNA in cell lysates (RV16 [2]) | rhinovirus 16 viral RNA in cell lysates (RV16 [2]; listed as IFNλ-1) | virus release in the supernatant by viral titration (RV16 [3]) | virus release in the supernatant by viral titration (RV16 [3]; listed as IFNλ-1) | virus induced cytopathic effect (rhinovirus [4]) | induction of IFNλ-1, IFNλ2-3 and interferon β (BEAS2B cells) |
| --- | --- | --- | --- | --- | --- | --- | --- | --- |
| B1 | ineffective | promising beneficial effects |  |  |  |  |  |  |
| B2 |  |  | dose-dependent anti-viral effect | reducing rhinovirus 16 viral RNA expression | dose-dependent anti-viral effect | reducing virus release | inhibited | induces itself as well as IFNλ2-3 and interferon β |

— patent US8273342B2, “Anti-virus therapy for respiratory diseases” (University of Southampton, priority 2004, dated 2012)
